Publication PMC11499264, “RNA m5C oxidation by TET2 regulates chromatin state and leukaemogenesis”

Target: T1, MBD6 MBD domain-MBP-His (Homo sapiens, UniProt Q96DN6 1-100)
T1 sequence: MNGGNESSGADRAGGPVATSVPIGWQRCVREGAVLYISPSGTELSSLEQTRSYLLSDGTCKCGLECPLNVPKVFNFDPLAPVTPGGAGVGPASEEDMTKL
Assay: EMSA; 0-100 uM protein; preferred over C and hm5C probes; 100 nM FAM probe, 20 mM HEPES pH 7.5, 40 mM KCl, 10 mM MgCl2, 0.1% Triton X-100, 10% glycerol, 1x RNaseOUT, on ice 30 min; 10% TBE gel, 0.5x TBE, 4 C
Conditions: protein: recombinant; tags: C-terminal MBP-6xHis; label: 5' 6-FAM; single strand

Binder: TATGACCTGCGGTATGACCTGCGGTATGACCTGCGG (ssDNA, 5-methyl-dC at positions 7, 19, 31) [p1-m5C (ss)]
- binding result: binds
